Results on 27 sequences are retold here after a protein production outcome set (Wang et al. 2014).

A short description of the series: label from the status in PepcDB records.

With “TGFVGEMYGTGDILRSVSIPSETDKPIIVELAVAAMEELVRMAQTGDPLWLSTDNSVEILNEEEYFRTFPRGIGPKPLGLRSEASRQSAVVIMNHINLVEILMDVNQWSCVFSGIVSRALTLEVLSTGVAGNYNGALQVMTAEFQVPSPLVPTRENYFVRYCKQHSDGSWAVVDVSLDSLRPSTPILRTRRRPSGCLIQELPNGYSKVTWIEHMEVDDRSVHNMYKPLVQSGLAFGAKRWVATLERQCERLASSMASNIPGDLSVITSPEGRKSMLKLAERMVMSFCSGVGASTAHAWTTMSTTGSDDVRVMTRKSMV”, the protein production result is given as “failed”.

As to “TGPQGPPGPAGPKGAKGETGPQGPPGPAGPKGAKGDSGVPLSYEFTQKVESSNGTAVFGLLSNGFVEVRITGSYSSDVFNIPYNYRPLKAGTQMALFSTSGVGVAKVGEDKITIQGYSRNAQCSGTVLYPHREF”, the protein production entry is given as “failed”.

As to “THANIQGLVKHVDYMAFSDQDTFLSVSNYAFDAFTFDFYASMLNAARLIIADEHTLLDTERLTDLILQENVNVMFATTALFNLLTDAGEDWMKGLRCILFGGERASVPHVRKALRIMGPGKLINCYGPTEGTVFATAHVVHDLPDSISSLPIGKPISN”, the protein production result was “failed”.

Turning to “TPHLVNLNEDPLMSECLLYYIKDGITRVGQADAERRQDIVLSGAHIKEEHCIFRSERSNSGEVIVTLEPCERSETYVNGKRVSQPVQLRSGNRIIMGKNHVFRFNHPEQARAEREKT”, the protein production entry was “not failed”.

As to “TPLAEGAKAIETLCKLIKKGHIVAVKGIGGFHLVCDATKNRVVMELRERKKRPTKPFAVMFRSVFEIGKCTELSPIEEATILSPERPIVLISKRRPHRLEKFLISCDGVAPRVGTMGVFLPYSPLHSLLMEQAKIPLVFTSANLSGEPLIRDFKELCEKLSGVFDYYLDHDREILNPCDDSVVTIQNNKFQV”, the protein production entry is recorded as “failed”.

Regarding “TPLPHQLEVAQKVVEKMNGKAILADEVGLGKTVEAGLILKEYMIRGLAKKILILVPASLVSQWVKELQEKFLIPAVEQKKSYVWEQCDIVVSSIDTAKRSPHREIVLSIPYDLVIIDEAHKLKNSKTKNYEFVRNLVKKYCLLLTATPIQNRIEEIFNLVSLLKPGHL”, the protein production result is “failed”.

For the sequence “TPLSLTLDHWSEIRSRAHNLSVEIKKGPWRTFCASEWPTFDVGWPPEGTFDLTVIFEVKAIVFQDGPGSHPDQQPYITVWQDLVQNSPPWIK”, the protein production entry is reported as “not failed”.

Regarding “TQEYLAPKTTVRVGLVQWQMRSYKTLDDLFEQVEFFVDAVSDYKSDFVLFPEYFNAPLMSKYNDKGESQAIRGLAQYTEEIRDRFINLAISYNINIITGSMPLIKEDGLLYNAGFLCRRDGTYEMYEKLHVTPDEIKSWGLSGGKQLKTFDTDCAKIGILICYDVEFPELSRLMADQGMQILFVPFLTDTQNAYSRVRVCAQARAIENECFVVIAGSVGNLPRVHNMDIQYAQSGVFTPCDFAFPTDGKRAEATPNTEMILVSDVDLDLLNELHTYGSVRNLKDRRNDVYEVRFKKP”, the protein production entry is recorded as “failed”.

Consider “TSLEEITKAIMADSQNKVFTEKNIEPLFAAPKTARINIVGQAPGIKAQESRLYWNDKSGDRLREWMGVDYDTFYHSGYFAVIPMDFYYPGKGKSGDLPPRKGFAQKWHQPILDLLPDIQLTILIGNYAQKYYLHQKSSVKLTDTVAHYKKYLPDYFPLVHPSPRNQIWMSRHPWFEAQVVPDLKKIIQQIIQSS”, for which the protein production entry is listed as “not failed”.

For “TSSLHPTRGKLLKRFAQIGPYIREQQCQESQFFFDCLAVCVNKKVTPEKREFWGWWMELERNGEQLIYYYQVGLFDKNGDWVNQVISKKDVIESIHETLIRFHDFLQAAVSELEMTLVPDEKMSNFPLPL”, the protein production result was “not failed”.

For “TSSLQGNLLISVPRDFGLLFIAPNLPTFMAKHPHLHIEVEFNDKKIDLLSEGYDLALRIGYMEDSSLVSRKIGTTTVHFAASPNYLETNGIPQTPDDLEHHNGLLYKNAMNQVNWVGSRINQTQRFKIQSKVVSNSGFALL”, the protein production result is listed as “failed”.

In the case of “TSTFYELFPKTFPKKLPIWTIDQSRLRKEYRQLQAQHHPDMAQQGSEQSSTLNQAYHTLKDPLRRSQYMLKLLRNIDLTQEQTSNEVTTSDPQLLLKVLDIHDELSQMDDEAGVKLLEKQNKERIQDIEAQLGQCYNDKDYAAAVKLTVELKYWYNLAKAFKDWAPGKQLEMNH”, the protein production entry is listed as “not failed”.

With “TSTMGNLQTAINDKSGTLASQNFLDADEQKRNAYNQAVSAAETILNKQTGPNTAKTAVEQALNNVNNAKHALNGTQNLNNAKQAAITAINGASDLNQKQKDALKAQANGAQRVSNAQDVQHNATELNTA”, the protein production entry is “not failed”.

For “TTLQVREQTARRTLAALGYNECVTYSFIDEAAARLFGGGSEAVRVENPISSEMTHLRPDLLPGLLRAAARNQARGFADIALCEIGPVFAGGEPGEQQLQATGLLVGAVAPRDPFGSRRPVDVYDAKADAEAVLAAVGAPARMQISRKVPGWWHPGRSGIVGLGPNVLATFGEVHPRILREMDVKGPAVAFTVLVANVPLPKVKTPTRPALKL”, the protein production entry was “failed”.

With “TVVRYNPDNHADESFAARPALLWVHGMTDYFFHTEFAEFFHNAGFAVYGIDLRKCGRSYRPGQQWHYTSDLAHYFPDLTAAAEVISSTHPELVPVAHSTGGLIVPLWMSQMRTSNPAAIEKIPALVLNSPWLDMMYPPLFIKLITPMVRVLGKRSPTTIIPGGGLGAYGKSIHKNFYGEWDFDTTIKPVEGHKKSIGWLRAVMAGQAEIHHDHVNVGVDVLTLCSNKSWLKSEYTEDTNTSDAVLDVKHIQKWAPHLSSPSSRVDVEIIDNARHDIFLSRKPARDHASEVLNNWLQSK”, the protein production result is listed as “failed”.

For “TYHRLALQRENASLNPVGQMVAVNGYKISVFVKGQGSQTLVFLSGAGTASPILDFKDVYDGFSKEYKIVVVERADYGYSEDTSKSRDVSVILSETRQSLAKSQVSGPYIILSHSMASLETLLWQENYPSEVKAVVCLDWAFPESYFQLKRHPQMLRLARWESQLGLLRLLPRQLYMPNENLSDSDRRLYQEIAYRQLLSQAMLNESLCAKENDKKVNSTSIKSQMPVLLMVSNGKGTGFGQEQWRHYATSFAKGQKNMEVTYYDSPHYFYHYQTKEMIRSIEEFVQE”, the protein production entry was “failed”.

Turning to “VALAATRAFYWIEAQSPDAATAFAQRVFDLYFSDRLDTASPEAVSRLGPEVGLEPEALLAGIADPALKETVRKIGEDAVARGIFGSPFFLVDDEPFWGWDRMEMMAEWIRTGGW”, the protein production entry is listed as “failed”.

On to “VDDTVNVANEYSRYPLENYQLDFYVDNSWGWLPWNWSDGIGKQVMYGLYAITNFIWTISLYVSNATGYLVQEAYSLDFISATADSIGKNMQTLAGVTPSGLSTEGFYVGFLLLLILVLGVYVVYTGLIKRETTKAIHAIVNFVMVFILSASFIAYAPDYIKKIN”, for which the protein production result is given as “failed”.

Regarding “VDIMLNTADISAAAILLPVEGAQLSELRQIPAEGGPVLHMLRLDSPQFSQFGEIYFSEVLPRRVKAWKRHSLMTQLFAVPVGCIHVVLYDGREKSPTSGRLAQVTLGRPDNYRLLRIPPQVWYGFAATGDTPALVANCTDIPHRQGESERAPQDAPFIPFSWAGADLSGTPVM”, the protein production result is “not failed”.

For the sequence “VEASFCLGDNWQFLYVNDATCRMTEYSREQLLSMNLQDIDVDFALHDWEEIRQKNNYTFKTRYRSQSGRIFLVEMSLTFLEDQERRFSCVFVREKS”, the protein production result is “failed”.

As for “VELPTEYTEQFSSQPTLNSKPIIKFEFTGNSVDAPVLSMASKKFGIDFSILMSQIDYAGGVKFGFVIAEVEGDGEAITAAKCYLINNNVKVEVLGYVG”, the protein production entry is reported as “failed”.

In the case of “VEPQSQALLHAQPIISIRVWGVGRDSGRERDFAYVARDKLTQMLKCHVFRCEAPAKNIATSLHEICSKIMAERRNARCLVNGLSLDHSKLVDVPFQVEFPAPKNELVQKFQVYYLGNVPVAKPVGVDVINGALESVLSSSSREQWTPSHVSVAPATLTILHQQTEAVLGECRVRFLSFLAVGRDVHTFAFIMAAGPASFCCHMFWCEPNAASLSEAVQAACMLRYQKCLDARSQASTSCLPAPPAESVARRVGWTVRRGVQSLWGSLKPKRLGAHTP”, the protein production entry is given as “failed”.

For “VFADKLDITVDQKKIILPYWLSRPVSYGAVIIVSGGETAQWSLLLEQFAKGLARNGWSVVLLNCTKNNSIPWINQLPEVISTLRQNNNKRIVLVHYGDQLNLALEYFSKPQSKMINGLVMLSAYDLNRNLQKVPRLRFPLFDIVGQFDYDMVRQQRKSREEKFKENSYLAIDIPGATHDYQYSQQLLLAFVHGWM”, the protein production entry was “not failed”.

For the sequence “VFSSEDITETSPDKWLIDGDTPLDEVERAIGYELPEGDYETISGLLFDHANALLKTGDVIEIPLDFEPEDYLNNTSPTQRILRITVLEVERNVPVKLALALLE”, the protein production result is reported as “not failed”.

Consider “VFVGRCTGDMTEDELREFFSQYGDVMDVFIPKPFRAFAFVTFADDQIAQSLCGEDLIIKGISVHISNAEPKHNSN”, for which the protein production result is on record as “not failed”.

For “VGQRSDSDHVMAEATTDKRQGHTRGRTGNDRRTQIIKVATELFREKGYYATSLDDIADRIGFTKPAIYYYFKSKEDVLFAIVNSIVDEALERFHAIAAGPGSPGERIHALLVEHTRTILRNLDANTLFYNERGLLSPEREREMRKREREYTEIMQRLYAEGVATGELLDVDPTVATATLLGAAIWTYRWYDPEGRLSADEVVEQITRLLLNGYRRPA”, the protein production entry was “not failed”.

With “VGRLDDLKRSPLFQNVPEDAMREALKVVTERNFQPDELVVEQDAEGEALHLVTTGVVRVSRVSLGGRERVLGDIYAPGVVGETAVLAHQERSASVRALTPVRTLMLHREHFELILRRHPRVLWNLAEMLARRVTFLNDELIAFGQNTEAALTHVFANLYRQRLAAGVPQPEVLPLGTQDIMARTSSSRETVSRVLKRLEAHNILEVSPRSVTLLDLAALEALSFEGAETD”, the protein production entry was “not failed”.
